The values that follow come from patent US20070122429A1, “Designed antigens to elicit neutralizing antibodies against sterically restricted antigen and method of using same” (priority 2005, published 2007).

Where no end group is shown, it is not given here. MBP = not defined here

Assay [1] addresses T1, HXB2 Env (Human immunodeficiency virus type 1 group M subtype B, UniProt P04578).
T1 construct: expressed in transfected cells; host or cells: Chinese hamster ovary cells expressing HXB2 Env, mixed with HeLa-CD4-LTR-β-galactosidase cells
The assay is classed as cell-based, HIV-1. As to conditions: range over cell-cell fusion and viral infectivity assays.
Experimental: Cell-cell fusion was monitored. HXB2 Env-expressing Chinese hamster ovary cells were mixed with HeLa-CD4-LTR-β-galactosidase cells in the presence of inhibitors for 20 h at 37° C. Syncytia were stained with 5-bromo-4-chloro-3-indolyl-β-D-galactopyranoside (X-gal) and counted.
Viral infectivity was measured by the following method: pseudotyped viruses were produced by co-transfecting 293T cells using FuGENE (Roche Applied Science) with pNL4-3.Luc.R-E- and either pEBB-HXB2 or pEBB-JRFL. After 36-48 h, viral supernatants were collected and sterile filtered. HXB2 or JRFL pseudotyped virus was added to HOS-CD4-fusin or HOS-CD4-CCR5 cells, respectively, in the presence of inhibitors. HXB2 assays included 20 μg/ml DEAE-dextran. After 12 h, virus and inhibitor were removed and replaced with fresh media. Cells were lysed 40-44 h after infection using Glo lysis buffer (Promega), and luciferase activity was measured using Bright-Glo (Promega). IC50 values for both assays were calculated by fitting data to the equation, y=k/(1+[inhibitor]/IC50), where y is the normalized number of syncytia or luciferase activity and k is the scaling constant.

For assay [2], the system named is IZN36-MBP. Kind of assay: co-precipitation with biotinylated IZN36-MBP on streptavidin beads. The assay is classed as binding. Particulars: SDS-PAGE. The method, then: This mixture is then added to magnetic streptavidin beads (Dynal), which bind to the biotinylated IZN36-MBP.

As to “MBP-C37: Escherichia coli maltose-binding protein fused by Ser5Gly2 linker to C37 ({MBP}-SSSSSGGHTTWMEWDREINNYTSLIHSLIEESQNQQEKNEQELLHHHHHH; reading uncertain; also: fused to maltose-binding protein (not in chain))”, the “reduction in potency relative to C37” value in assay [1] was 75-228 fold. For the same substance, in assay [2], the “binding to IZN36-MBP” value is reported as “reduced binding”.
